Measurements: publication PMC11791206 (Nature Communications, 2025)

Molecular target: full-length (MLD-containing) EBOV glycoprotein GP1,2, wild type (Ebola virus (EBOV), UniProt Q05320)
Experiment: immunostaining of cells or tissue
Details: one partner purified

Sequence of full-length (MLD-containing) EBOV glycoprotein GP1,2, wild type (Q05320 33-676): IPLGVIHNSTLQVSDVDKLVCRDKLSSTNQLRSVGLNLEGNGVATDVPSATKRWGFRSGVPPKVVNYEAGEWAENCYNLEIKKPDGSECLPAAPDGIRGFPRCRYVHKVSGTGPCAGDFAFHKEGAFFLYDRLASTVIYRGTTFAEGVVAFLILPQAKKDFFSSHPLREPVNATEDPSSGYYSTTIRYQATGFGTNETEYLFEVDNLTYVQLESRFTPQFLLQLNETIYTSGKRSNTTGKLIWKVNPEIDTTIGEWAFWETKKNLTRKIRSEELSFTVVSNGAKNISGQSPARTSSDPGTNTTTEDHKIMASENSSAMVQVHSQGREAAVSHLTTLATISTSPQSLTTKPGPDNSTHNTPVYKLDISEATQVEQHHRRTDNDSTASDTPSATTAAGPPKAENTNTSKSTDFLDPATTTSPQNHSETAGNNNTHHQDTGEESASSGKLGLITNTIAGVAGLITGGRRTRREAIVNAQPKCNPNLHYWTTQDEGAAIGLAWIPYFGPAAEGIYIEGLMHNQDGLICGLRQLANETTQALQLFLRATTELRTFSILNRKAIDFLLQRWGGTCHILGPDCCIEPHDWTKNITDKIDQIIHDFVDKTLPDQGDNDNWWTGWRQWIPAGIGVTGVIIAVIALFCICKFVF

B1: mAb 9.6.3A6 (3A6 IgG) (antibody, V domains shown)
VH: EVQLLESGGGLVKPGGSLRLSCAASGFTFNEYMMNWVRQPPGKGLEWVSSISGTSTYINYADSVKGRFTISRDNAKNSLYLQMNSLRSDDTAMYYCARGSTGGYWGQGTLITVSS
VL: DIVMTQTPLSSAVTLGQPASISCRSSQRLVHSDGNTYLSWLHQRPGQPPRLLIYKVSLRFSGVPDRFSGSGAGTDFTLKISRVEAEDVGIYYCMQATQFPLTFGGGTKVEIK
notes: copies: 2 + 2
- binding result: binds
